Patent US20170306032A1

Columns and labels:
[1] = molecular target: human EphA2 recombinant protein (purified human EphA2 extracellular domain) (human) (UniProt P29317); assay: SPR, Biacore 3000, immobilized huEphA2 extracellular domain, KDequilibrium
[2] = molecular target: mouse EphA2 recombinant protein (Fc chimera, R&D Systems, cat#639-A2) (mouse) (UniProt Q03145); assay: end-point titration ELISA on mEphA2
[3] = molecular target: human EphA2 recombinant protein (purified human EphA2 extracellular domain) (human) (UniProt P29317); assay: SPR, Biacore 3000, immobilized huEphA2 extracellular domain
[4] = molecular target: human EphA2 recombinant protein (purified human EphA2 extracellular domain) (human) (UniProt P29317); assay: BLI, Octet Red, biotinylated huEphA2 on streptavidin sensors, steady state fit (column head prints EC50, title KD)
[5] = molecular target: human EphA2 recombinant protein (purified human EphA2 extracellular domain) (human) (UniProt P29317); assay: end-point titration ELISA on huEphA2
[6] = molecular target: human EphA2 receptor expressed on cells (HEK293-EphA2, CHO-EphA2, PC-3) (human) (UniProt P29317); assay: FACS on CHO cells transfected with human EphA2
[7] = molecular target: mouse EphA2 recombinant protein (Fc chimera, R&D Systems, cat#639-A2) (mouse) (UniProt Q03145); assay: BLI, Octet Red, biotinylated mEphA2 on streptavidin sensors, steady state fit (column head prints EC50, title KD)
[8] = molecular target: human EphA2 recombinant protein (purified human EphA2 extracellular domain) (human) (UniProt P29317); assay: SPR, Biacore 3000, immobilized huEphA2 extracellular domain, KDkinetic

Sequence of human EphA2 recombinant protein (purified human EphA2 extracellular domain) (human) (P29317 24-537): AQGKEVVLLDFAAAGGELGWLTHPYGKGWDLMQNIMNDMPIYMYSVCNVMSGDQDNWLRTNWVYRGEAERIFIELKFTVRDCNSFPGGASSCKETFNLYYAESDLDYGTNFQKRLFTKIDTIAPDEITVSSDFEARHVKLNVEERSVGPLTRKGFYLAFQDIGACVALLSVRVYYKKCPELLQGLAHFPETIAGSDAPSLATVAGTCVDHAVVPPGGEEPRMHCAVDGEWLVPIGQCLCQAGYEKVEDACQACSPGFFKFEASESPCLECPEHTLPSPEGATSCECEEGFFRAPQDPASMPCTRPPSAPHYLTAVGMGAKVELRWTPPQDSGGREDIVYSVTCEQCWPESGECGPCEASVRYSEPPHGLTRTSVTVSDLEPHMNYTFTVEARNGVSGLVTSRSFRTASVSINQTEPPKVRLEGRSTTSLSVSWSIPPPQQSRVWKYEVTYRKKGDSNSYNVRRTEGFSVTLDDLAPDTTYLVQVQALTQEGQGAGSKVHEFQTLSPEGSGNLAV
Sequence of mouse EphA2 recombinant protein (Fc chimera, R&D Systems, cat#639-A2) (mouse) (Q03145 26-535, change not shown): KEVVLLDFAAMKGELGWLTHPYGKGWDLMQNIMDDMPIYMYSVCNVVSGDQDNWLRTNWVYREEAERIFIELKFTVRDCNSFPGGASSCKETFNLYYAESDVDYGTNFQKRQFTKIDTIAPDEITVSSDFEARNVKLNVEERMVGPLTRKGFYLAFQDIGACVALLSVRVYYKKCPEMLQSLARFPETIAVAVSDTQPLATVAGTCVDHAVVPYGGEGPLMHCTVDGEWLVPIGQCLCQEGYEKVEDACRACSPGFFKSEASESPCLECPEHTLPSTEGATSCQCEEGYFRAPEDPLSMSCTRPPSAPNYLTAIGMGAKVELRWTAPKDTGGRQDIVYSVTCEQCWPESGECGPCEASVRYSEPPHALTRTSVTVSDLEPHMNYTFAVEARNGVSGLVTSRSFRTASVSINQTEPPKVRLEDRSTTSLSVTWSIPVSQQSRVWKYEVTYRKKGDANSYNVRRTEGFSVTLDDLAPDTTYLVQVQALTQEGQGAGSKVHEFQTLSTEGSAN
Sequence of human EphA2 receptor expressed on cells (HEK293-EphA2, CHO-EphA2, PC-3) (human) (P29317 24-976): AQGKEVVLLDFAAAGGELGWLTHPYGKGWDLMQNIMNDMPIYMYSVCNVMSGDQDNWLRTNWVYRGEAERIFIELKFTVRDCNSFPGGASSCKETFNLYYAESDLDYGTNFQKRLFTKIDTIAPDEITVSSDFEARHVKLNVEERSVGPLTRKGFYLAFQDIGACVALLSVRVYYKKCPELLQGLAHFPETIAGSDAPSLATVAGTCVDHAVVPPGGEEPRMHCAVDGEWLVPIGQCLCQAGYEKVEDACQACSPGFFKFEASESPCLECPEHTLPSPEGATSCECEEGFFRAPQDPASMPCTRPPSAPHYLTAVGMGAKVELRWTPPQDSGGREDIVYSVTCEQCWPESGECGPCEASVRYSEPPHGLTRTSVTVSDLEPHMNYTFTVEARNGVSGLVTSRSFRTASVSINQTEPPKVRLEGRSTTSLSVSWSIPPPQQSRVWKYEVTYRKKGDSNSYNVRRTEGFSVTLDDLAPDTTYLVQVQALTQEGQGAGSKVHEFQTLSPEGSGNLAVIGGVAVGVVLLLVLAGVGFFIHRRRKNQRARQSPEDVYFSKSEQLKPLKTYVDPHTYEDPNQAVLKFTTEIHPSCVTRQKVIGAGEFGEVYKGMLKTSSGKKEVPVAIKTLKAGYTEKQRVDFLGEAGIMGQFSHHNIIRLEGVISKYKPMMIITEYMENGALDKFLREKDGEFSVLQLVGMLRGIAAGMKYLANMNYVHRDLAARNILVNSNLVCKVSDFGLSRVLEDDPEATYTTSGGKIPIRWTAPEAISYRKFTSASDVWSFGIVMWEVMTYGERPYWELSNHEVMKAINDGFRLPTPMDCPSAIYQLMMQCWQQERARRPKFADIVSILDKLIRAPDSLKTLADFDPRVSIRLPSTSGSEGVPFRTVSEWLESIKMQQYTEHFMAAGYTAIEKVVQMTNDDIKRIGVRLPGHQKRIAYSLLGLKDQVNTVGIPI

Kd [1]: 56 nM
EC50 [2]: 3.5 nM
koff [3]: 0.0496 s⁻¹
kon [3]: 716000 M⁻¹ s⁻¹
Kd [4]: 39 nM
EC50 [5]: 6.54 nM
EC50 [6]: 151 nM
Kd [7]: 30 nM
Kd [8]: 69 nM
B1: B6 modified CH2 domain (affinity matured, loop 1 PYLHDD, loop 2 of E10) (designed binder)
chain: GPSVFLFPPKPKDTLMISRTPEVTCVVVDPYLHDDEVKFNWYVDGAEVHHAQTKPRQYDPLYGYRVVSVLTVLHQDWLNGKEYKCKVSNKALPAPIEKTISKAK
